Data: paper PMC9482650, “Quantitative fragmentomics allow affinity mapping of interactomes” (Nature Communications, 2022)

T1: MPP6, Q9NZW5
T1 sequence (Q9NZW5 125-219, limits assumed, looked up): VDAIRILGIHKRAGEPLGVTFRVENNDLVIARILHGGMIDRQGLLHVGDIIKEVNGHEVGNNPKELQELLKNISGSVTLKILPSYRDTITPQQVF

T2: DLG3_3, Q92796
T2 sequence (Q92796 374-475, limits assumed, looked up): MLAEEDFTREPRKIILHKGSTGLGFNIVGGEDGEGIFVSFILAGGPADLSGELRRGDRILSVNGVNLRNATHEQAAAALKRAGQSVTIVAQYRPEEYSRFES

T3: SIPA1L2, Q9P2F8
T3 sequence (Q9P2F8 945-1036, limits assumed, looked up): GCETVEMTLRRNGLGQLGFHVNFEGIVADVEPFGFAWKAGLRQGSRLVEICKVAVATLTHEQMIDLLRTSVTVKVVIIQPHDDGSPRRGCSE

T4: GRIP1_2, Q9Y3R0
T4 sequence (Q9Y3R0 145-248, limits assumed, looked up): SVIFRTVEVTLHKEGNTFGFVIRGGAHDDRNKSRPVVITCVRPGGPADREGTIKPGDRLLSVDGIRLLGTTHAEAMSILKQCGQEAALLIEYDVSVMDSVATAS

T5: DLG3_2, Q92796
T5 sequence (Q92796 221-321, limits assumed, looked up): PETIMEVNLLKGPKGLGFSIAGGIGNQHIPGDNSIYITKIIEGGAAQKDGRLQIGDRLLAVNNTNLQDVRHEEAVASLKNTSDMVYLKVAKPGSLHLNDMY

T6: MPP2, Q14168
T6 sequence (Q14168 180-250, limits assumed, looked up): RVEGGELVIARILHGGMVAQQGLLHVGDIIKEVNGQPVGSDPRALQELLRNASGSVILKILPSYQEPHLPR

T7: SNTG2, Q9NY99
T7 sequence (Q9NY99 68-166, limits assumed, looked up): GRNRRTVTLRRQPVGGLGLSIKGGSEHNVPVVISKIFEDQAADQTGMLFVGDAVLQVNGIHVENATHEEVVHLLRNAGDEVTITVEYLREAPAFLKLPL

T8: RHPN1, Q8TCX5
T8 sequence (Q8TCX5 508-602, limits assumed, looked up): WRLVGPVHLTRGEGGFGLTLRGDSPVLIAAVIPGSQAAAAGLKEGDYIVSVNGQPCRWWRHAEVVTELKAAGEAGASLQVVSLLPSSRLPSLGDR

T9: MPP7, Q5T2T1
T9 sequence (Q5T2T1 134-230, limits assumed, looked up): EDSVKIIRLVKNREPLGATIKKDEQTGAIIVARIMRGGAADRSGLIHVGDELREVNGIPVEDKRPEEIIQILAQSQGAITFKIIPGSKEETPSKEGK

T10: CARD11, Q9BXL7
T10 sequence (Q9BXL7 662-765, limits assumed, looked up): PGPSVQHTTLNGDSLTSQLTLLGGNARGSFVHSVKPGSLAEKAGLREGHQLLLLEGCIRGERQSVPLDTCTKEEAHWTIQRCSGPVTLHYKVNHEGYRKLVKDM

T11: LNX2_3, Q8N448
T11 sequence (Q8N448 463-564, limits assumed, looked up): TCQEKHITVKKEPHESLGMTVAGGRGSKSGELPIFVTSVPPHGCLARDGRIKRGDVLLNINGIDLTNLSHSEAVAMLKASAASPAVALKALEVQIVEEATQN


How the values were obtained:
Test in all cases: holdup assay
Design in all cases: key: below the threshold = too weak to quantify, mostly under pKd 3.1 to 4
Conditions in all cases: plain residues with an end cap or a label only (N-terminal biotin on a linker: ado-ado)
GRIP2_5, Q9C0E4 = target: GRIP2_5, Q9C0E4
Chain of GRIP2_5, Q9C0E4 (Q9C0E4 544-642): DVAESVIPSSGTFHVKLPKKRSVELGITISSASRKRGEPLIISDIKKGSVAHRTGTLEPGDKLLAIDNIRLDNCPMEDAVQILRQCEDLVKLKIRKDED

MPP6, Q9NZW5 = target: T1, MPP6, Q9NZW5
GRIP2_4, Q9C0E4 = target: GRIP2_4, Q9C0E4
Chain of GRIP2_4, Q9C0E4 (Q9C0E4 446-548): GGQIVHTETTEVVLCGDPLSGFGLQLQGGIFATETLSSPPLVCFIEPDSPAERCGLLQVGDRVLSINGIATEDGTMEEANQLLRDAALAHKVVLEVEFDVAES

PDLIM1, O00151 = target: PDLIM1, O00151
Chain of PDLIM1, O00151 (O00151 1-87): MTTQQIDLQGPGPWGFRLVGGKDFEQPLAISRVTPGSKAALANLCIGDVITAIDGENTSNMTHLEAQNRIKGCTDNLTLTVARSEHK

SCRIB_1, Q14160 = target: SCRIB_1, Q14160
Chain of SCRIB_1, Q14160 (Q14160 718-814): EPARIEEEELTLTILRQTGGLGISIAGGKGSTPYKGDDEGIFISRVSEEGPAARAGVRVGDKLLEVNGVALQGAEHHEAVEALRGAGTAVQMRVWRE

DLG3_3, Q92796 = target: T2, DLG3_3, Q92796
PTPN3, P26045 = target: PTPN3, P26045
Chain of PTPN3, P26045 (P26045 505-587): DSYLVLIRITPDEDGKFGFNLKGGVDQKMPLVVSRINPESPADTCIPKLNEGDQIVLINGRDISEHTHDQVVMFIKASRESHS

ARHGEF12, Q9NZN5-2 = target: ARHGEF12, Q9NZN5-2
Chain of ARHGEF12, Q9NZN5-2 (Q9NZN5 other isoform, or with tags, fused parts or gaps): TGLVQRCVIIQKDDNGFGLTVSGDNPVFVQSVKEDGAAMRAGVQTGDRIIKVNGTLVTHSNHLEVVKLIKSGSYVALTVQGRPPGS

SIPA1L2, Q9P2F8 = target: T3, SIPA1L2, Q9P2F8
GRIP1_2, Q9Y3R0 = target: T4, GRIP1_2, Q9Y3R0
DLG3_2, Q92796 = target: T5, DLG3_2, Q92796
MPP2, Q14168 = target: T6, MPP2, Q14168
GRIP2_7, Q9C0E4 = target: GRIP2_7, Q9C0E4
Chain of GRIP2_7, Q9C0E4 (Q9C0E4 934-1023): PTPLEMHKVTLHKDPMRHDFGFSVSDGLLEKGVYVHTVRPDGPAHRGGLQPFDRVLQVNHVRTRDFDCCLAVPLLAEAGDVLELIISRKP

NOS1, P29475 = target: NOS1, P29475
Chain of NOS1, P29475 (P29475 9-101): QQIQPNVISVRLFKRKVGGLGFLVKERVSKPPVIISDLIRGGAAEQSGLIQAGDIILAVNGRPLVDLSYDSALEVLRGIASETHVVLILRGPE

SCRIB_3, Q14160 = target: SCRIB_3, Q14160
Chain of SCRIB_3, Q14160 (Q14160 999-1103): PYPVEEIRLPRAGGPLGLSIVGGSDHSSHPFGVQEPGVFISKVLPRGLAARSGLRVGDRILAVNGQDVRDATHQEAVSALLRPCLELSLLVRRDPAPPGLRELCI

IL16_4, Q14005 = target: IL16_4, Q14005
Chain of IL16_4, Q14005 (Q14005 1229-1329): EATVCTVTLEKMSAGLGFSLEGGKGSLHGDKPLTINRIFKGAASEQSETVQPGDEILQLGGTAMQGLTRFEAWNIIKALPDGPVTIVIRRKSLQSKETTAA

NHERF4_1, Q86UT5-2 = target: NHERF4_1, Q86UT5-2
Chain of NHERF4_1, Q86UT5-2 (Q86UT5 other isoform, or with tags, fused parts or gaps): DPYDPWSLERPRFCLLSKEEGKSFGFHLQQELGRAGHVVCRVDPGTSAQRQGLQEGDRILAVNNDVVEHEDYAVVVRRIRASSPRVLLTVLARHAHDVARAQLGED

SNTG2, Q9NY99 = target: T7, SNTG2, Q9NY99
RHPN1, Q8TCX5 = target: T8, RHPN1, Q8TCX5
MPP7, Q5T2T1 = target: T9, MPP7, Q5T2T1
TJP2_1, Q9UDY2 = target: TJP2_1, Q9UDY2
Chain of TJP2_1, Q9UDY2 (Q9UDY2 24-128): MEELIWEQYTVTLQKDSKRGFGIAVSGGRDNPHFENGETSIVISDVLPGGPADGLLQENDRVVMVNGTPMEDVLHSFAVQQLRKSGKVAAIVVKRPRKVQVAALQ

CARD11, Q9BXL7 = target: T10, CARD11, Q9BXL7
Inadl_4, Q8NI35 = target: Inadl_4, Q8NI35
Chain of Inadl_4, Q8NI35 (Q8NI35 547-651): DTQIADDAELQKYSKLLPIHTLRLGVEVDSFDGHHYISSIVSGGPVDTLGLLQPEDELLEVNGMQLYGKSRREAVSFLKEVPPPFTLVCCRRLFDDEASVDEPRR

GIPC2, Q8TF65 = target: GIPC2, Q8TF65
Chain of GIPC2, Q8TF65 (Q8TF65 112-203): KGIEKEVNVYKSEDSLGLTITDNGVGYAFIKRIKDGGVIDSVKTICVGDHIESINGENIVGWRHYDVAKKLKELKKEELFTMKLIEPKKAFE

FRMPD2_2, Q68DX3 = target: FRMPD2_2, Q68DX3
Chain of FRMPD2_2, Q68DX3 (Q68DX3 944-1038): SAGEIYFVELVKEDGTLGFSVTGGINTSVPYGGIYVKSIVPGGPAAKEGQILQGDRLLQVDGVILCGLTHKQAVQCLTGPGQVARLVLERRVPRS

LNX2_3, Q8N448 = target: T11, LNX2_3, Q8N448

Binder	pKd (GRIP2_5, Q9C0E4)	pKd (MPP6, Q9NZW5)	pKd (GRIP2_4, Q9C0E4)	pKd (PDLIM1, O00151)	pKd (SCRIB_1, Q14160)	pKd (DLG3_3, Q92796)	pKd (PTPN3, P26045)	pKd (ARHGEF12, Q9NZN5-2)	pKd (SIPA1L2, Q9P2F8)	pKd (GRIP1_2, Q9Y3R0)	pKd (DLG3_2, Q92796)	pKd (MPP2, Q14168)	pKd (GRIP2_7, Q9C0E4)	pKd (NOS1, P29475)	pKd (SCRIB_3, Q14160)	pKd (IL16_4, Q14005)	pKd (NHERF4_1, Q86UT5-2)	pKd (SNTG2, Q9NY99)	pKd (RHPN1, Q8TCX5)	pKd (MPP7, Q5T2T1)	further results
TGLWKSETTV [ADGRA2, Q96PE1]	below the threshold	3.85	below the threshold	below the threshold	4.34	4.47	4.54	4.06	below the threshold	below the threshold	5.07	below the threshold	below the threshold	3.56	4.4	below the threshold	below the threshold	4.14	4.33	below the threshold	pKd (TJP2_1, Q9UDY2): below the threshold; pKd (CARD11, Q9BXL7): below the threshold; pKd (Inadl_4, Q8NI35): below the threshold; pKd (GIPC2, Q8TF65): 4.04; pKd (FRMPD2_2, Q68DX3): 3.51; pKd (LNX2_3, Q8N448): below the threshold
IPGKEFDTPL [PLCB1, Q9NQ66]	below the threshold	3.59	below the threshold	below the threshold	3.93	below the threshold	4.82	3.61	below the threshold	below the threshold	below the threshold	below the threshold	below the threshold	below the threshold	4.3	below the threshold	3.56	below the threshold	3.65	below the threshold	pKd (TJP2_1, Q9UDY2): below the threshold; pKd (CARD11, Q9BXL7): below the threshold; pKd (Inadl_4, Q8NI35): below the threshold; pKd (GIPC2, Q8TF65): below the threshold; pKd (FRMPD2_2, Q68DX3): below the threshold; pKd (LNX2_3, Q8N448): below the threshold
HLRQQGSVEV [EPHB6, O15197]	below the threshold	below the threshold	below the threshold	below the threshold	below the threshold	below the threshold	below the threshold	3.67	below the threshold	below the threshold	below the threshold	below the threshold	below the threshold	3.88	below the threshold	below the threshold	3.71	below the threshold	below the threshold	below the threshold	pKd (TJP2_1, Q9UDY2): below the threshold; pKd (CARD11, Q9BXL7): below the threshold; pKd (Inadl_4, Q8NI35): below the threshold; pKd (GIPC2, Q8TF65): below the threshold; pKd (FRMPD2_2, Q68DX3): below the threshold; pKd (LNX2_3, Q8N448): below the threshold

Second part, led by results:

pKd (GRIP2_5, Q9C0E4)	pKd (MPP6, Q9NZW5)	pKd (GRIP2_4, Q9C0E4)	pKd (PDLIM1, O00151)	pKd (SCRIB_1, Q14160)	pKd (DLG3_3, Q92796)	pKd (PTPN3, P26045)	pKd (ARHGEF12, Q9NZN5-2)	pKd (SIPA1L2, Q9P2F8)	pKd (GRIP1_2, Q9Y3R0)	pKd (DLG3_2, Q92796)	pKd (MPP2, Q14168)	pKd (GRIP2_7, Q9C0E4)	pKd (NOS1, P29475)	pKd (SCRIB_3, Q14160)	pKd (IL16_4, Q14005)	pKd (NHERF4_1, Q86UT5-2)	pKd (SNTG2, Q9NY99)	pKd (RHPN1, Q8TCX5)	pKd (MPP7, Q5T2T1)	Binder	further results
below the threshold	3.69	below the threshold	below the threshold	below the threshold	below the threshold	3.7	below the threshold	below the threshold	below the threshold	below the threshold	below the threshold	below the threshold	below the threshold	below the threshold	below the threshold	below the threshold	below the threshold	below the threshold	below the threshold	DHLGGGGESM [TNRC6A, Q8NDV7]	pKd (TJP2_1, Q9UDY2): below the threshold; pKd (CARD11, Q9BXL7): below the threshold; pKd (Inadl_4, Q8NI35): below the threshold; pKd (GIPC2, Q8TF65): below the threshold; pKd (FRMPD2_2, Q68DX3): below the threshold; pKd (LNX2_3, Q8N448): below the threshold
below the threshold	3.69	below the threshold	below the threshold	3.58	3.73	4.49	4	below the threshold	below the threshold	3.47	below the threshold	below the threshold	below the threshold	3.63	below the threshold	below the threshold	below the threshold	4.04	below the threshold	NLQEHSTTSV [RSBN1, Q5VWQ0]	pKd (TJP2_1, Q9UDY2): below the threshold; pKd (CARD11, Q9BXL7): below the threshold; pKd (Inadl_4, Q8NI35): below the threshold; pKd (GIPC2, Q8TF65): below the threshold; pKd (FRMPD2_2, Q68DX3): 3.97; pKd (LNX2_3, Q8N448): below the threshold
